Experimental findings from patent publication US20160333095A1 (Genmab, published 2016) are described below.

Numbering of substitutions follows the chain as printed. Names may count otherwise.

The term EC50 denotes the midpoint of the concentration-response curve.

The target of test [1] is T1, human CD3 (human, UniProt P07766 22-207).
T1 construct: also called CD3 on the human T-cell line Jurkat; CD3 on human T cells
Kind of test: flow cytometry on Jurkat cells, supernatant preparations, FIG. 21. The protocol:
(§1) Jurkat cells (DSMZ, Brunswick, Germany) were thawed at 37° C. and washed once in 30 mL PBS and spun for 10 minutes at 300×g at 4° C. Cell pellet was resuspended in 25 mL of PBS/0.1% BSA/0.02% azide at a final concentration of 0.8×10⁶ cells/mL. 100 μL of this cell suspension (0.8×10⁵ cells/well) was transferred into polystyrene 96-well round-bottom plates (Greiner Bio-one, Alphen a/d Rijn, The Netherlands) and incubated with serial dilutions of supernatant preparations (range 3 to 10,000 ng/mL in 3-fold dilutions) in PBS/0.1% BSA/0.02% azide at 4° C. for 30 minutes. After washing three times in PBS/0.1% BSA/0.02% azide, Jurkat cells were incubated in 50 μL with secondary antibody at 4° C. for 30 min. As a secondary antibody, R-Phycoerythrin (PE)-conjugated goat-anti-human IgG F(ab′)2 (Jackson ImmunoResearch Laboratories, Inc., West Grove, Pa.) diluted 1/200 in PBS/0.1% BSA/0.02% azide, was used for all experiments. Next, Jurkat cells were washed twice in PBS/0.1% BSA/0.02% azide, re-suspended in 150 μL PBS/0.1% BSA/0.02% azide and analyzed on a FACS Cantoll (BD Biosciences). Binding curves were analyzed using nonlinear regression (sigmoidal dose-response with variable slope) using GraphPad Prism V 5.04 software (GraphPad Software, San Diego, Calif., USA).

The next test deals with T2, cynomolgus CD3 (cynomolgus monkey, UniProt Q95LI5 22-198).
T2 construct: also called CD3 on the cynomolgus T-cell line HSC-F; cynomolgus CD3ε (epsilon)
T2 sequence (Q95LI5 22-198): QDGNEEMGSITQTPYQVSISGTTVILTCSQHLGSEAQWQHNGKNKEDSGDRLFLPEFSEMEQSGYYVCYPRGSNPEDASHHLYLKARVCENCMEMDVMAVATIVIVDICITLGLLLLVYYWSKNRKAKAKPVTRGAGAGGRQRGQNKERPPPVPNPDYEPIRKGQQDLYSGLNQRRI
Kind of test: flow cytometry on HSC-F cells, FIG. 2B. As to the method:
In addition to the non-activating mutations, LFLEDA, the antibody variants contained F405L or K409R mutations as described in Example 1.
Cells (1×10⁵ cells/well) were incubated in polystyrene 96-well round-bottom plates (Greiner bio-one 650101) with serial dilutions of antibody preparations (range 5 to 10,000 ng/mL in 3-fold dilutions) in 100 μL PBS/0.1% BSA/0.02% azide at 4° C. for 30 min.
After washing twice in PBS/0.1% BSA/0.02% azide, cells were incubated in 100 μL with secondary antibody at 4° C. for 30 min. As a secondary antibody, R-Phycoerythrin (PE)-conjugated goat-anti-human IgG F(ab′)2 (109-116-098, Jackson ImmunoResearch Laboratories, Inc., West Grove, Pa.) diluted 1/100 in PBS/0.1% BSA/0.02% azide, was used for all experiments. Next, cells were washed twice in PBS/0.1% BSA/0.02% azide, re-suspended in 150 μL PBS/0.1% BSA/0.02% azide and analyzed on a FACS Cantoll (BD Biosciences). Binding curves were analyzed using non-linear regression (sigmoidal dose-response with variable slope) using GraphPad Prism V 5.04 software (GraphPad Software, San Diego, Calif., USA).
On the technique in general: Flow cytometry measures light scatter and fluorescence of single cells or particles in a stream.

Test [2] deals with T1, human CD3. Kind of test: flow cytometry on Jurkat cells, FIG. 21. As to the method: as §1
Test [3] concerns the target T1, human CD3. Kind of test: flow cytometry on isolated human T cells, FIG. 22. The protocol: As a secondary antibody, R-Phycoerythrin (PE)-conjugated goat-anti-human IgG F(ab′)2 (Jackson ImmunoResearch Laboratories, Inc., West Grove, Pa.) diluted 1/200 in PBS/0.1% BSA/0.02% azide, was used for all experiments. […] Binding curves were analyzed using nonlinear regression (sigmoidal dose-response with variable slope) using GraphPad Prism V 5.04 software (GraphPad Software, San Diego, Calif., USA).

T1 sequence (P07766 22-207 limits assumed): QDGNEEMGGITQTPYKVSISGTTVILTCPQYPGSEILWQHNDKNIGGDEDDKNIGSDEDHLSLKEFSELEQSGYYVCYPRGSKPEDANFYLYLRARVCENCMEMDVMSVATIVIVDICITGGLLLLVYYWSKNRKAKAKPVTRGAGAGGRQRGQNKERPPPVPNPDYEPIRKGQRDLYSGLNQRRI

B1: IgG1-huCD3-H1-LFLEDA-LF10L (antibody, V domains shown)
VH: EVKLVESGGGLVQPGGSLRLSCAASGFTFNTYAMNWVRQAPGKGLEWVARIRSKYNNYATYYADSVKDRFTISRDDSKSSLYLQMNNLKTEDTAMYYCVRHGNFGNSYVSWFAYWGQGTLVTVSS
VL: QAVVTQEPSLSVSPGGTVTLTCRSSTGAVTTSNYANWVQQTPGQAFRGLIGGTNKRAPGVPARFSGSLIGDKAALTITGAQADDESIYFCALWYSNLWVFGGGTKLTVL
notes: IgG1 with LFLEDA (L234F/L235E/D265A); tested as supernatant preparation; also called IgG1-huCD3-H1L1-LF10L (with LFLEDA)
In the test with human CD3 [1], B1 gave an EC50 of 0.169 µg/mL.

B2: bsIgG1 CD3×HER2 (bispecific antibody, V domains shown)
VH 1: B1 VH with V5L, G15K, R19K, K78Q, S80I, S125A
VL 1: QAVVTQESALTTSPGETVTLTCRSSTGAVTTSNYANWVQEKPDHLFTGLIGGTNKRAPGVPARFSGSLIGDKAALTITGAQTEDEAIYFCALWYSNLWVFGGGTKLTVL
VH 2: QVQLVQSGAEVKKPGASVKVSCKASGYTFTNYGISWVRQAPGQGLEWMGWLSAYSGNTIYAQKLQGRVTMTTDTSTTTAYMELRSLRSDDTAVYYCARDRIVVRPDYFDYWGQGTLVTVSS
VL 2: EIVLTQSPATLSLSPGERATLSCRASQSVSSYLAWYQQKPGQAPRLLIYDASNRATGIPARFSGSGSGTDFTLTISSLEPEDFAVYYCQQRSNWPRTFGQGTKVEIK
With B2, the binding result with cynomolgus CD3 is given as “binds”.

B3: bsIgG1 huCD3-H3L1×HER2-LFLEDA (bispecific antibody, V domains shown)
VH 1: B1 VH with Q13K, G16R, S80I, N87S
VL 1: not shown
VH 2: B2 VH 2
VL 2: B2 VL 2
notes: LFLEDA = L234F/L235E/D265A; also called bsIgG1 huCD3-H3L1-LFLEDA
Regarding B3, in the test with cynomolgus CD3, the binding result is listed as “binds”.

B4: IgG1-huCD3-H1-LFLEDA-LT41K (antibody, V domains shown)
VH: B1 VH
VL: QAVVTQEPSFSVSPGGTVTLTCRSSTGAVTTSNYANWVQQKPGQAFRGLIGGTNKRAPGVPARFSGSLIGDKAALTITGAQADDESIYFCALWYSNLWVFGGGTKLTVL
notes: IgG1 with LFLEDA; supernatant preparation; also called T41K mutant
Molecule B4 displayed an EC50 in the test with human CD3 [1] of 0.096 µg/mL.

B5: IgG1-huCD3-H1-LFLEDA-LL97H (antibody, V domains shown)
VH: B1 VH
VL: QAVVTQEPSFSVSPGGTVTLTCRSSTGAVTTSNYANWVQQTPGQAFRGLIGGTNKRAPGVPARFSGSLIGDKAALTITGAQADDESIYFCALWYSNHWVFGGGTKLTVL
notes: IgG1 with LFLEDA; supernatant preparation
Consider B5, for which the EC50 with human CD3 [1] stood at 0.095 µg/mL.

B6: IgG1-huCD3-H1-LFLEDA-LLKNH (antibody, V domains shown)
VH: B1 VH
VL: QAVVTQEPSLSVSPGGTVTLTCRSSTGAVTTSNYANWVQQKPGQAFRGLIGGTNNRAPGVPARFSGSLIGDKAALTITGAQADDESIYFCALWYSNHWVFGGGTKLTVL
notes: IgG1 with LFLEDA; supernatant preparation; also called LKNH mutant
With B6, the “fold lower apparent affinity than wild type IgG1-huCD3-H1L1-LFLEDA” value in the test with human CD3 [2] was 5 fold. In the test with human CD3 [1], this molecule yielded a concentration giving a half-maximal response (EC50) of 0.438 µg/mL.

B7: IgG1-huCD3-H1-LFLEDA-LK55N (antibody, V domains shown)
VH: B1 VH
VL: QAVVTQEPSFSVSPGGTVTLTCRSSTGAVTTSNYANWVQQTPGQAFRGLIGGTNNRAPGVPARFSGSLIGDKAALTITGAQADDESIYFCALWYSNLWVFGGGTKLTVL
notes: IgG1 with LFLEDA; supernatant preparation; also called K55N mutant
As for B7, in the test with human CD3 [2], the “fold lower apparent affinity than wild type IgG1-huCD3-H1L1-LFLEDA” value was 5 fold. For the same molecule, a half-maximal response in the test with human CD3 [1] (EC50) required 0.531 µg/mL.

B8: bsIgG1-huCD3-H1L1-LK55N/HER2-LFLEDA (bispecific antibody, V domains shown)
VH 1: B1 VH
VL 1: not shown
VH 2: B2 VH 2
VL 2: B2 VL 2
notes: LFLEDA = L234F/L235E/D265A; also called bsIgG1-huCD3-LK55N/HER2-LFLEDA
B8 showed a 50% effective concentration (EC50) with human CD3 [3] of 0.61 µg/mL.
